In patent US20250027068:
Positions count from the first letter of the chain named.

Molecular target: pooled human IgG (human IgG1,2,3 and 4)

B1: PRT-173 (protein)
chain: MANQEIRYSEVTPYHVTSVWTKGVTPPANFTQGEDVFHAPYVANQGWYDITKTFNGKDDLLCGAATAGNMLHWWFDQNKDQIKRYLEEHPEKQKINFNGEQMFDVKEAIDTKNHQLDSKLFEYFKEKAFPYLSTKHLGVFPDHVIDMFINGYRLSLTNHGPTPVKEGSKDPRGGIFDAVFTRGDQSKLLTSRHDFKEKNLKEISDLIKKELTEGKALGLSHTYANVRINHVINLWGADFDSNGNLKAIYVTDSDSNASIGMKKYFVGKNASGKVAISAKEIEGENIGAQVLGLFTLSTGQDSWNQTN
Question: What does the source list for B1?
Answer: Enzyme Activity Endpoint Assay: Fab'2: 912 ng/µL; Enzyme Activity Endpoint Assay: Fc: 226 ng/µL; Enzyme Activity Endpoint Assay: IgG: 0 ng/µL; Enzyme Activity Endpoint Assay: scIgG: 30 ng/µL

B2: PRT-174 (protein)
chain: B1 chain with G283D
Question: B2 was tested. Which Enzyme Activity Endpoint Assay: Fab'2 did it give?
Answer: 586 ng/µL

Question: And the Enzyme Activity Endpoint Assay: Fc?
Answer: 160 ng/µL

Question: And the Enzyme Activity Endpoint Assay: IgG?
Answer: 0 ng/µL

Question: What about the Enzyme Activity Endpoint Assay: scIgG of the same protein?
Answer: 0 ng/µL

B3: PRT-175 (protein)
chain: MANQEIRYSEVTPYHITSVWTKGVTPPTDFTQGEDVFHAPYKANQGWYDITKTFNGKDDLLCGAATAGNMLHWWFDQNKTQIERYLKKHPEKQKINFNGEQMFDVKEAIDTKNSQTNSELFNYFKEKAFPYLSTKHLGVFPDHVIDMFINGYRLSLTNHGPTPVKRQSKDPRGGIFDAVFTRGDQSKLLTSRHDFKEKTLNEISQLIKQELTEGKALGLSHTYANVRINHVINLWGADFDAEGNLEAIYVTDSDSNASIGMKKYFVGVNSAGKVAISAKEIKEDNIGAQVLGLFTLSTGKDSWEKTN
Question: With B3 as the protein, how does the Enzyme Activity Endpoint Assay: Fab'2 read?
Answer: 497 ng/µL

Question: What about the Enzyme Activity Endpoint Assay: Fc of the same protein?
Answer: 147 ng/µL

Question: What about the Enzyme Activity Endpoint Assay: IgG of the same protein?
Answer: 0 ng/µL

Question: What about the Enzyme Activity Endpoint Assay: scIgG of the same protein?
Answer: 0 ng/µL

B4: PRT-178 (protein)
chain: MANQEIRYSEVTPYHVTSVWTKGVTPPANFTQGEDVFHAPYVANQGWYDITKTFNGKDDLLCGAATAGNMLHWWFDQNKDQIKRYLEEHPEKQKIIFNNQELFDLKAAIDTKNHQLDSKLFEYFKEKAFPYLSTKHLGVFPDHVIDMFINGYRLSLTNHGPTPVKEGSKDPRGGIFDAVFTRGDQSKLLTSRHDFKEKNLKEISDLIKKELTEGKALGLSHTYANVRINHVINLWGADFDSNGNLKAIYVTDSDSNASIGMKKYFVGVNSAGKVAISAKEIKEDNIGAQVLGLFTLSTGQDSWNQTN
Question: How did the Enzyme Activity Endpoint Assay: Fab'2 turn out when B4 was run?
Answer: 695 ng/µL

Question: What about the Enzyme Activity Endpoint Assay: Fc of the same protein?
Answer: 196 ng/µL

Question: And the Enzyme Activity Endpoint Assay: IgG?
Answer: 0 ng/µL

Question: And the Enzyme Activity Endpoint Assay: scIgG?
Answer: 0 ng/µL

B5: PRT-176 (protein)
chain: MANQEIRYSEVTPYHITSVWTKGVTPPTDFIKGEDVFHAPYKAHQGWYDITKTFNGGDDLLCGAATAGNMLHWWFDQNKTQIEAYLKKHPEKQKINFNGEQMFDVKEAIDTKNSQTNSELFNYFKEKAFPYLSTKHLGVFPDHVIDMFINGYRLSLTNHGPTPVKRQTKDPRGGIFDAVFGRGDQTKLLTSRHDFKEKTLNDISQLIKQELQSGKALGLSHTYANVRINHVINLWGADFDAEGNLEAIYVTDSDSNASIGMKKYFVGKNASGKVAISAKEIEDENIGAQVLGLFTLSTGKKSWEKTN
Question: B5 was tested. Which Enzyme Activity Endpoint Assay: Fab'2 did it give?
Answer: 310 ng/µL

Question: And the Enzyme Activity Endpoint Assay: Fc?
Answer: 140 ng/µL

Question: What about the Enzyme Activity Endpoint Assay: IgG of the same protein?
Answer: 0 ng/µL

Question: What about the Enzyme Activity Endpoint Assay: scIgG of the same protein?
Answer: 86 ng/µL

B6: PRT-177 (protein)
chain: B5 chain with T17K, S18T, K22D, T25K, T53A, N55D, K79S, E91D, Q185S
Question: Which Enzyme Activity Endpoint Assay: Fab'2 does the source give for B6 here?
Answer: 67 ng/µL

Question: What about the Enzyme Activity Endpoint Assay: Fc of the same protein?
Answer: 105 ng/µL

Question: And the Enzyme Activity Endpoint Assay: IgG?
Answer: 131 ng/µL

Question: And the Enzyme Activity Endpoint Assay: scIgG?
Answer: 426 ng/µL

B7: PRT-172 (protein)
chain: MANQEIRYSEVTPYHVTSVWTKGVKPPTDFIKGEDVFHAPYKAHQGWYDITKTFNGKDDLLCGAATAGNMLHWWFDQNKDQIKRYLEEHPEKQKINFNGEQMFDVKEAIDTKNSQLDSKLFEYFKEKAFPYLSTKHLGVFPDHVIDMFINGYRLSLTNHGPTPVKEGSKDPRGGIFDAVFTRGDQSKLLTSRHDFKEKNLKEISDLIKKELTEGKALGLSHTYANVRINHVINLWGADFDSNGNLKAIYVTDSDSNASIGMKKYFVGVNSAGKVAISAKEIKEDNIGAQVLGLFTLSTGQDSWNQTN
Question: What does the source list for B7?
Answer: Enzyme Activity Endpoint Assay: Fab'2: 821 ng/µL; Enzyme Activity Endpoint Assay: Fc: 215 ng/µL; Enzyme Activity Endpoint Assay: IgG: 0 ng/µL; Enzyme Activity Endpoint Assay: scIgG: 0 ng/µL
